B1: WSC02 [human] / CXCR4 wt (transfected 293T cells) [human] (parent complex)
chain 1: IVRWSKKVPCVS
chain 2: MEGISIYTSDNYTEEMGSGDYDSMKEPCFREENANFNKIFLPTIYSIIFLTGIVGNGLVILVMGYQKKLRSMTDKYRLHLSVADLLFVITLPFWAVDAVANWYFGNFLCKAVHVIYTVNLYSSVLILAFISLDRYLAIVHATNSQRPRKLLAEKVVYVGVWIPALLLTIPDFIFANVSEADDRYICDRFYPNDLWVVVFQFQHIMVGLILPGIVILSCYCIIISKLSHSKGHQKRKALKTTVILILAFFACWLPYYIGISIDSFILLEIIKQGCEFENTVHKWISITEALAFFHCCLNPILYAFLGAKFKTSAQHALTSVSRGSSLKILSKGKRGGHSSVSTESESSSFHSS
B2: EPI-X4 JM#21 [human] / CXCR4 wt (transfected 293T cells) [human] (parent complex)
chain 1: ILRWSRKLPCVS
chain 2: B1 chain 2

The variants in one assay derive from B1. Put plainly: 12G5 antibody competition assay, flow cytometry on transfected 293T cells; 2 h incubation; IC50 set to 1000 µM if above the maximally used concentration; parent: 1e+03 nM; read off a plot. Background: In flow cytometry, cells or beads pass a laser one at a time.
As usually defined, the IC50 is the concentration that gives 50% inhibition. As to chain 2 L41A, the IC50 is approximately 1500 nM. Still for that read-out and setting: then chain 2 D187E, with approximately 420 nM; and chain 2 V112A, with approximately 600 nM. The same measure, in the same setting: as for chain 2 V112L, the figure is approximately 400 nM; as for chain 2 D97Q, approximately 690000 nM; as for chain 2 D97N, approximately 380000 nM. Take chain 2 D97T: the IC50 is approximately 30000 nM. On the same count and under the same terms, as for chain 2 D97S, the figure is approximately 320000 nM. Turning to chain 2 D97E, the IC50 is approximately 8000 nM.

With chain 2 E277A, the IC50 is approximately 750 nM. Turning to chain 2 D97E, chain 2 V112L, the IC50 is approximately 1700 nM. Turning to chain 2 D97E, chain 2 V112A, the IC50 is approximately 1700 nM. With chain 2 D262A, the IC50 was approximately 450 nM. Take chain 2 L41A, chain 2 V112A: the IC50 was approximately 4800 nM.

Another assay covers variants of B2. Put plainly: 12G5 antibody competition assay, flow cytometry on transfected 293T cells; 2 h incubation; IC50 set to 100 µM if above the maximally used concentration; parent: 620 nM; read off a plot.
Consider chain 2 D97Q, for which the IC50 was approximately 8000 nM. On the same count and under the same terms, as for chain 2 L41A, the figure is approximately 650 nM. Regarding chain 2 D262A, the IC50 is approximately 220 nM.

In the case of chain 2 D97E, chain 2 V112L, the IC50 is approximately 380 nM.

Source of the values: article PMC8458281, “Computational modeling and experimental validation of the EPI-X4/CXCR4 complex allows rational design of small peptide antagonists” (Communications Biology, 2021).
